{"source": "patent US20220088117", "test_system": "T1, Serp-1 (myxomavirus-derived serine protease inhibitor)", "T1 sequence": "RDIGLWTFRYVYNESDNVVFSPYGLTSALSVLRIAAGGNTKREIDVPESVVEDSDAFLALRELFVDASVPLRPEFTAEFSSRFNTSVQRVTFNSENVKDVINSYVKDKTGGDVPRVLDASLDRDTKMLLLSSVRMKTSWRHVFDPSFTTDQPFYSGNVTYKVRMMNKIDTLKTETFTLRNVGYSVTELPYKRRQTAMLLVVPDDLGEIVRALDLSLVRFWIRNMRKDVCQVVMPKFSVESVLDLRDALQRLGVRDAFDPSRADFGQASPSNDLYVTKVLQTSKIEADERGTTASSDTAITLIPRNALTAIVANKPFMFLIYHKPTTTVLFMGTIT"}
{"substance": "urokinase-type plasminogen activator (uPA)", "values": [{"measurement": "uPA activity in an in vitro substrate conversion assay", "value": "Serp-1 inhibition of uPA activity in an in vitro substrate conversion assay is not affected by the presence of a broad-spectrum antibiotic cocktail"}]}
